Experimental data from publication PMC12126490, “The HP1 box of KAP1 organizes HP1α for silencing of endogenous retroviral elements in embryonic stem cells” (Nature Communications, 2025).

How the values were obtained:
[1] = system: endogenous HP1α in KAP1^−/− ESCs; test: immunofluorescence of endogenous HP1α; type: cell-based; conditions: KAP1^−/− mouse ESCs stably expressing the GFP-labeled construct, anti-HP1α antibody, DAPI
Procedure: The constructs coding for GFP-KAP1RF and the P486A/V488A/L490A mutant were transfected into 1 ×10^5 KAP1^−/− mouse ESCs using Lipofectamine 3000 (Invitrogen). Forty-eight hours post-transfection, cells were trypsinized and plated at a colony density in selection medium containing 10 μg/ml blasticidin (Thermo Fisher Sci) for one week. The selection process was repeated once to establish stable GFP-KAP1 expressing cell lines.
For immunostaining, mouse ESCs were cultured on Geltrex-coated coverslips (Life Technologies) in DMEM supplemented with 16% fetal bovine serum, 0.1 mM β-mercaptoethanol (Invitrogen), 2 mM L-glutamine, 1× MEM non-essential amino acids, 100 U/ml penicillin, 100 µg/ml streptomycin (PAA), 2i (1 μM PD032591 and 3 μM CHIR99021 (Axon Medchem, Netherlands) and 1000 U/ml recombinant LIF (Millipore). Coverslips were rinsed twice with PBS (pH 7.4; 140 mM NaCl, 2.7 mM KCl, 6.5 mM Na2HPO4, 1.5 mM KH2PO4), followed by fixation with 3.7% formaldehyde (Sigma) for 10 min. Fixed cells were washed three times (10 min each) with PBST (PBS + 0.01% Tween-20), permeabilized in 0.5% Triton X-100 for 10 min, and washed twice (10 min each) with PBST. Primary and secondary antibodies were prepared in blocking solution (PBST + 3% BSA). […]

[2] = system: dsRed-HP1α in E14 ESC cells; test: heterochromatin half-FRAP (MOCHA-FRAP); type: cell-based, mouse; conditions: bleached and non-bleached half of heterochromatin compartment, living ESCs
Procedure: E14 ESC cells were transfected with 3 µg of pdsRed-HP1α and either pGFP or pGFP-KAP1FR using AMAXA nucleofector (Lonza), seeded in slide chambers containing high precision glass overnight at 37 °C and 5% CO2. Samples were analyzed using a Leica SP5-II confocal point scanner microscope equipped with 488 nm Argon ion and 561 nm DPSS 50 mW lasers, a AOBS beams splitter and a HyD Hybrid detector. Cells were first scanned for GFP^+ using a HCX PL APO 100x Corr CS objective, and a section of 64 × 64 pixels with 0.8-0.6 µm/px size containing one heterochromatin compartment of these cells was selected. Subsequently, a point region of interest was used to bleach the half of the heterochromatin compartment for 100 ms at maximum intensity of the laser (488 and 561 nm). The recovery was documented for 15 s with a frame rate of approximately 100 ms/frame. MOCHA-FRAP analysis was performed as in ref. [36].

[3] = system: DNA-induced HP1α phase separated droplets; test: in vitro droplet assay; conditions: 50 µM HP1α, 0.18 µM 601 DNA
Source text: For droplet assays, cDNA of full-length HP1α was cloned into a pET28 expression vector. His-tag fusion HP1α was expressed in E. coli and purified as in ref. [51]. cDNA of the KAP1FR fragment (aa 114–834) was cloned into a pCAG-GFP expression vector, and the P486A/V488A/L490A mutant of GFP-KAP1FR was generated using overlap extension PCR. Purification of GFP-KAP1FR proteins was described in ref. [52].
For the droplet assay, Widom 601 DNA was amplified by PCR using a plasmid coding for 12× 601 DNA with primers as follows: 601 DNA_F: […] and 601 DNA_R: TGCACAGGATGTATATATCTGACAC. HP1α was concentrated to ~10 µg/µl using Amicon concentrators. The buffer changes for both HP1α and GFP-KAP1FR solutions were carried out using Zeba™ Spin Desalting Columns with a buffer containing 20 mM HEPES at pH 7.2, 75 mM KCl, and 1 mM DTT. For visualization of His-tagged-HP1α within the droplets, 500 ng of protein was labeled with the 647 N fluorescent label using the Monolith NT™ Protein Labeling Kit RED-NHS from Nano Temper. To form HP1α droplets, 50 µM of HP1α was incubated with 0.18 µM of 601 DNA for 3 min and dropped into ibidi chamber (µ-Slide 18 Well). Subsequently, 50 ng of the labeled HP1α and 100 ng of GFP-KAP1FR (wild type or mutant) were added into HP1α/DNA droplets. The images of the droplets were collected using a Nikon TiE microscope equipped with a Yokogawa CSU-W1 spinning-disk confocal unit (50 μm pinhole size), an Andor Borealis illumination unit, Andor ALC600 laser beam combiner (405 nm/488 nm/561 nm/640 nm), Andor IXON 888 Ultra EMCCD camera, and a Nikon 100×/1.45 NA oil immersion objective. The size and intensity of HP1α phase-separated droplets were analyzed using ImageJ.

B1: GFP-KAP1FR: GFP labeled KAP1 fragment (aa 114–834 of KAP1) (protein)
chain: VVDCPVCKQQCFSKDIVENYFMRDSGSKAATDAQDANQCCTSCEDNAPATSYCVECSEPLCETCVEAHQRVKYTKDHTVRSTGPAKSRDGERTVYCNVHKHEPLVLFCESCDTLTCRDCQLNAHKDHQYQFLEDAVRNQRKLLASLVKRLGDKHATLQKSTKEVRSSIRQVSDVQKRVQVDVKMAILQIMKELNKRGRVLVNDAQKVTEGQQERLERQHWTMTKIQKHQEHILRFASWALESDNNTALLLSKKLIYFQLHRALKMIVDPVEPHGEMKFQWDLNAWTKSAEAFGKIVAERPGTNSTGPAPMAPPRAPGPLSKQGSGSSQPMEVQEGYGFGSGDDPYSSAEPHVSGVKRSRSGEGEVSGLMRKVPRVSLERLDLDLTADSQPPVFKVFPGSTTEDYNLIVIERGAAAAATGQPGTAPAGTPGAPPLAGMAIVKEEETEAAIGAPPTATEGPETKPVLMALAEGPGAEGPRLASPSGSTSSGLEVVAPEGTSAPGGGPGTLDDSATICRVCQKPGDLVMCNQCEFCFHLDCHLPALQDVPGEEWSCSLCHVLPDLKEEDGSLSLDGADSTGVVAKLSPANQRKCERVLLALFCHEPCRPLHQLATDSTFSLDQPGGTLDLTLIRARLQEKLSPPYSSPQEFAQDVGRMFKQFNKLTEDKADVQSIIGLQRFFETRMNEAFGDTKFSAVLVEPPPMSLPGAGLSSQELSGGPGDG
modifications: left off: GFP, end not stated, kept
- distribution of endogenous HP1α (puncta) [1]: Endogenous HP1α formed large puncta and colocalized with GFP-KAP1FR
- fluorescence recovery of HP1α [2]: neither the bleached half (thin purple line) nor the non-bleached half (thick purple line) fully recovered their fluorescence
- sequestration of 647N labeled HP1α into droplets ([3]; 20 mM HEPES pH 7.2, 75 mM KCl, 1 mM DTT, 100 ng GFP-KAP1FR, 50 ng labeled HP1α): sequestered HP1a into the interior of droplets within a minute
- localization of GFP-KAP1FR in droplets ([3]; confocal microscopy): concentrated at the periphery of the droplets
